Patent US20180057590A1 (VAL CHUM LIMITED PARTNERSHIP, published 2018)

Biological target: T1, human Dual Ig domain containing cell adhesion molecule (DICAM) (human, UniProt Q9BRK3 20-442)
T1 construct: Assayed as endogenous DICAM of THP-1 cells and TH17 lymphocytes, and as human DICAM from vector pCMV6-neo-DICAM in NIH3T3 and NS0 cells; It stood on the cell surface in flow cytometry and in cell lysate in Western blot; also called limitrin; Matrix-remodeling-associated protein 8
T1 sequence: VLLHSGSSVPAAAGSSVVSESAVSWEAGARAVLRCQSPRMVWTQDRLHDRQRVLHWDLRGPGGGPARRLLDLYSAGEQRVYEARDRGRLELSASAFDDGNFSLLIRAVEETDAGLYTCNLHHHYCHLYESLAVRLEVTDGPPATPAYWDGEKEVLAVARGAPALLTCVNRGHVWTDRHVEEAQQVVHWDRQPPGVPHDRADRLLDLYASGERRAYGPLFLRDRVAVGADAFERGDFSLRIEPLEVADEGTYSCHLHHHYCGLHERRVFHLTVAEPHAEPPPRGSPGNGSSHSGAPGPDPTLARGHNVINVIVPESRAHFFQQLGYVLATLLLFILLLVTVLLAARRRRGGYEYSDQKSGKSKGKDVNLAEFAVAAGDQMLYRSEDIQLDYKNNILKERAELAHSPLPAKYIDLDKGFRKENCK
Assay: Western blot (Table III)
Experimental: THP-1 cells express DICAM as determined by qPCR and confirmed by WB (see Jung et al., Journal of Bone and Mineral Research, Vol. 27, No. 9, pp 2024-2034, 2012). THP-1 cell lysate (30 μg) were loaded on 12% SDS-PAGE gel and electrophoresed for 90 min at 100V and transferred to PVDF membranes. Hybridoma from clone 3C2, 2C11, 2H12, 9E9 and 1B2 (N-terminal DICAM epitope 57-71) or from clone 7F8, 1D9, 4B8 and 1D4 (C-terminal DICAM epitope 372-385) were incubated at 4° C. (50 μg/ml) for 12 h. Secondary antibody is goat anti-mouse pan-IgG coupled to HRP (1/2000 dilution). Actin is shown as a loading control. N=4
Characterization of anti-DICAM antibodies by Western blot THP-1 and NIH3T3 cells transfected with human DICAM-encoding vector (pCMV6-neo) or with empty vector (pCMV6-neo) cell lysate ([…]) were loaded on 12% SDS-PAGE gel and electrophoresed for 90 min at 100V and transferred to PVDF membranes. […] N=4 by standard SDS-PAGE and immunoblots were analyzed with anti-DICAM (Goat; 1:100 dilution; sc-163102; Santa Cruz Biotechnology®); horseradish peroxidase-conjugated anti-goat (1:1,000 dilution; P00448; DakoCytomation®) and the ECL system (Amersham Biosciences®) were used to detect specific binding, and anti-actin (1:5,000 dilution; AC-15; MP Biomedicals®) served as a loading control. […]

B1: anti-DICAM monoclonal antibody clone 9E9 (antibody, mouse IgG1, V domains shown)
VH: EVQLVESGGGLVKPGGSLKLSCAASGFTFISYAMSWVRQTPEKRLEWVATISSGGSYTYYPHSVKGRFTISRDNARNTLYLQMSSLRSEDTAMYYCARLDGPSYAMDYWGQGTSVTVS
VL: QIVLTQSPAIMSAFLGEEITLTCSASSSVSYMHWYQQKSGTSPKLLIYSTSNLASGVPSRFSGSGSGTFYSLTISSVEAEDAADYYCHQWSSYRTFGGGTKLEIKR
notes: Mouse hybridoma antibody, murine IgG1 heavy chain and kappa light chain; also called mAb clone 9E9; hybridoma clone 9E9
  binding result: binds
